Measured values published in patent US20240034792A1.

Target: Human PD-1 expressed on CHO-K1 cells (CHO-K1/hPD-1) (human) (UniProt Q15116)
Assay: FACS, CHO-K1/hPD-1 cells

Human PD-1 expressed on CHO-K1 cells (CHO-K1/hPD-1) (human), sequence (Q15116 25-288): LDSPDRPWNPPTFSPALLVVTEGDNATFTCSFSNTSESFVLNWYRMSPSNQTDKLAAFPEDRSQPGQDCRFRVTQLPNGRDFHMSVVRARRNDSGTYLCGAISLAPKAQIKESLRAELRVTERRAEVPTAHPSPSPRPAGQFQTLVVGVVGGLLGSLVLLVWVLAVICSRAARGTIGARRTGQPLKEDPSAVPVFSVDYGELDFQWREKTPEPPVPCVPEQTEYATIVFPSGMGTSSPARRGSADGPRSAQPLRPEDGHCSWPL

Maximum (MFI): 49300
Substance: hIgG1 (antibody)
